Assay results: patent publication US20230203156A1, “ANTI-MDR1 ANTIBODIES AND USES THEREOF” (KENJOCKETY BIOTECHNOLOGY, INC., priority 2020, published 2023)
“Also recorded” adds a separate entry of the source.

B1: B1.129: anti-MDR1 antibody, Mouse; VH SEQ ID NO:56, VL SEQ ID NO:60 (antibody, listed as Mus musculus, V domains shown)
VH: EVQLQQSGPELVKPGASVKMSCKASGYTFSTYVIHWVKQKPGQGLEWIGYIYPYNDYTKYNEKFKDKATLTSDKSSSTAYMEIRSLTSEDSAVYYCSRAYYGNLVGYGVDYWGQGTSVTVSS
VL: QIVLTQSPAILPASPGEKVTMTCRASSSVSFIYWYQQRPGSSPKPWIFATSNLASGVPARFSGSGSGTSYSLTISRVEAEDAATYYCHQWGSNLPTFGGGTKLEIK
B2: B1.223: anti-MDR1 antibody, Mouse; VH SEQ ID NO:102, VL SEQ ID NO:104 (antibody, listed as Mus musculus, V domains shown)
VH: EVKLVESGGALVKPGGSLKLSCAASGFTFSNYAMSWVRQTPEKRLEWVATISSGGSYTYYPDSVKGRFTISRDNAKTTLYLQMSGLRSEDTALYYCAKFSNYGRFASWGQGTLVTVSS
VL: DIQMIQSPLSLPVSLGDQASISCRSSQSIVHSSGNTYLEWYLQKPGQSPRLLIYKVSNRFFGVPDRISGSGSGTDFTLRISRVEAEDLGVYYCFQGSHVPYTFGGGTKLELK
B3: B1.261: anti-MDR1 antibody, Mouse; VH SEQ ID NO:118, VL SEQ ID NO:122 (antibody, listed as Mus musculus, V domains shown)
VH: QVQLKESGPGLVAPSQSLSITCTVSGFSLTSYGVHWVRQPPGKGLEWLVVIWSDGSTTYNSALKSRLSISKDNSKSQVFLKMNSLQIDDTAMYYCARHGRWLLQRGGAMDYWGQGTSVTVSS
VL: DVVMTQAPKFMSTSVGDRVSVTCRASQNVGSYIAWYQQKLGQSPKALIYSASYRCSGVPDRFTGSGAGTDFTLTIRNVQSEDLAEYFCQQYNSYPLTFGGGTKLEIK
B4: B1.28: anti-MDR1 antibody, Mouse; VH SEQ ID NO:14, VL SEQ ID NO:18 (antibody, listed as Mus musculus, V domains shown)
VH: EVKLVESGGGLVKPGGSLKLSCAASGFTFGLYTMSWVRQTPERRLEWVATISSGGSNTYYPDSVKGRFTISRDNAKNNLFLQMNSLRSEDTALYYCARYYRYDAWFAYWGQGTLVTVSS
VL: DVLLTQTPLSLPVSLGDQASISCRSSQNIVHSTGNTYLDWYLQKPGQSPKLLIYKVSNRFSGVPDRFSGSGSGTDFTLKISRVEAEDLGVYFCFQGSHIPRTFGGGTKLEIK

Tests used:
human MDR1 [1] = biological target: T1, human MDR1 (Homo sapiens, UniProt P08183); assay: Antibody binding/titration to 293T cells overexpressing human MDR1 (FACS); conditions: 293T cell line overexpressing human MDR1
T1 construct: expressed in transfected cells
Method: Antibody binding to cells was evaluated by flow cytometry. 293T cells stably transfected to express human ABCB1 (293T_KPB1_OX) were washed once in flow cytometry buffer (PBS + 2% FBS + 0.02% sodium azide), resuspended at 2 x 10 \^6 cells/mL in flow cytometry buffer, and dispensed into 96-well microtiter plates at 0.1 mL/well. In the figures, “B1” refers to ABCB1 (also known as MDR1 or Pgp). Recombinant antibodies were added to cells at 5 ug/mL for initial binding confirmation, or serially diluted from 100 ug/mL in flow cytometry buffer. After incubating cells on ice for 30 min, cells were washed twice with flow cytometry buffer. Bound antibody was detected with PE-labeled F(ab′)2 fragment goat anti-human IgG (Jackson ImmunoResearch) and evaluated on an Attune NxT flow cytometer.
Binding titration of recombinant antibodies to ABCB1 transfectants was performed by 3-fold serial dilution of antibodies from 666.7 nM. Diluted antibody in flow cytometry buffer was incubated with cells on ice for 30 min. After 2 washes with flow cytometry buffer, bound antibody was detected with PE-labeled F(ab′)2 fragment goat anti-human IgG (Jackson ImmunoResearch) diluted 1:200 in flow cytometry buffer and incubated with cells for 20 min on ice. After 2 washes with flow cytometry buffer fluorescence was measured on an Attune NxT flow cytometer. Data were analyzed with GraphPad Prism 8.0 software to determine EC50′s.
(§1) Anti-MDR1 mAb B1.129 and a humanized version thereof were assessed for binding to 293T cell line overexpressing human MDR1 or to 293T cells transfected with cynomolgus MDR1. […] B1.129.hz1 and B1.129.hz2 antibodies are the same as the humanized versions B1.129.huH1-huL1(KV3) and B1.129.huH1-huL1(KV1), respectively, listed in Table 2. FIG. 10C summarizes the binding data for the B1.129 antibody.

cynomolgus MDR1 = assay: Antibody binding to 293T cells transfected with cynomolgus MDR1
Sequence of cynomolgus MDR1 (as listed by the source): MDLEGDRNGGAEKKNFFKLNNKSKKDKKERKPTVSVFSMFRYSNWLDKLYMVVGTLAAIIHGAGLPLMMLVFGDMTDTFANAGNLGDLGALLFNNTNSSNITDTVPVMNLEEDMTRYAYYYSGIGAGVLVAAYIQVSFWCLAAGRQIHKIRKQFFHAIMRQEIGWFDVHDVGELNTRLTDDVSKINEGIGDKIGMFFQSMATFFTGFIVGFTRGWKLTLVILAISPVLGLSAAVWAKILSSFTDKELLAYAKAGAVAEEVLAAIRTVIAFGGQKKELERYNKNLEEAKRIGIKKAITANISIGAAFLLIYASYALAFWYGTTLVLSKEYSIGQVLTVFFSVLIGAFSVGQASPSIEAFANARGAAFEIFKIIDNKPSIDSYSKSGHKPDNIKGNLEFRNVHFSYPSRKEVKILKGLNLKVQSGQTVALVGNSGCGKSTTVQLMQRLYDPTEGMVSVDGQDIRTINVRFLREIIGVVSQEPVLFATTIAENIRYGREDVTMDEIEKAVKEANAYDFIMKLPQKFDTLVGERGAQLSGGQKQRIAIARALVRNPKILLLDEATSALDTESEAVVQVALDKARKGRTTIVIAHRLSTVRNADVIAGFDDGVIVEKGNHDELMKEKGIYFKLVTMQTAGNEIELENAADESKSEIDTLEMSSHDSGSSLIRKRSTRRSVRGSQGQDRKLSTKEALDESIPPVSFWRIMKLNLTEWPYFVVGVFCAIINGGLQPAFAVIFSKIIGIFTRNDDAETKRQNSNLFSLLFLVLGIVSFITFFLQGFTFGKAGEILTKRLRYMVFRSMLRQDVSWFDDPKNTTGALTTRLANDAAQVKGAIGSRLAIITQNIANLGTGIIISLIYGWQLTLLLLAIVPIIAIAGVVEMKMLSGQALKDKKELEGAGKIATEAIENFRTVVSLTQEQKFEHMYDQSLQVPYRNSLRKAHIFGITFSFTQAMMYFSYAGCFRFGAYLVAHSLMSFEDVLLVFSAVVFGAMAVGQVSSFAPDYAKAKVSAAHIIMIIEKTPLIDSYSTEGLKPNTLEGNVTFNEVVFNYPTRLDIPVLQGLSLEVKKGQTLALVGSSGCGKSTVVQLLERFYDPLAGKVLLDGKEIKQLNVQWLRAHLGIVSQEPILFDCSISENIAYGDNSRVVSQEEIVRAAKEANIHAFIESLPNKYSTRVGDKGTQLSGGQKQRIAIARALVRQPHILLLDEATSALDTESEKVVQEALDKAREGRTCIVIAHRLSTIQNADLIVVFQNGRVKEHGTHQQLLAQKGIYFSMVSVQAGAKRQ
Method: as §1
Anti-MDR1 mAb B1.28 and a humanized version thereof were assessed for binding to 293T cell line overexpressing human MDR1 or to 293T cells transfected with cynomolgus MDR1.

[2] = system: A2780 ADR ovarian carcinoma; assay: A2780 ADR drug-resistant ovarian carcinoma model in nude mice; assay type: in vivo; conditions: for tumor volume, single agent: antibody as a single agent; for tumor volume, in combination with paclitaxel: antibody plus paclitaxel
Method: (§2) Anti-ABCB1 antibodies B1.129, B1.261, B1.223, B1.225, B1.188, B1.28, and B1.226 were tested for effect on growth of tumors in immunodeficient mice. The following cancer cell lines were used for generating tumor models.
A2780 ADR: The adriamycin-resistant cell line A2780ADR has been developed by exposure of the parent A2780 cell line (Sigma catalogue no. 93112519) to adriamycin. A2780ADR is cross-resistant to melphalan and vinblastine. To retain resistance adriamycin has to be added to the media. The cells grow as a monolayer and in suspension in spinner cultures and are tumorigenic in immune deficient mice. Together with the cisplatin-resistant variant A2780cis these lines only differ in their exposure to a single drug and should facilitate the search for molecular changes responsible for the expression of pleiotropic drug resistance in human ovarian cancer.
Nude mice were implanted with A2780 ADR cells to model ovarian carcinoma. Anti-B1 monoclonal antibodies are efficacious in A2780 ADR ovarian carcinoma model in nude mice.

[3] = system: MES-SA DX5 uterine sarcoma; assay: MES-SA DX5 drug-resistant uterine sarcoma model in nude mice; assay type: in vivo; conditions: for tumor volume / tumor growth, single agent / tumor volume / tumor growth, in combination with paclitaxel: MES-SA DX5, nude mice; for tumor volume / tumor growth, single agent: antibody as a single agent; for tumor volume / tumor growth, in combination with paclitaxel: antibody plus paclitaxel; for sensitization of MES-SA DX5 uterine sarcoma to paclitaxel: MES-SA DX5 tumors in vivo
Method: as §2
MES-SA DX5: The multi drug-resistant cell line MES-SA/Dx5 (Sigma. 95051031) was derived from the human uterine sarcoma cell line MES-SA (Sigma Catalogue number. 95051030) which was originally obtained from a tumour from a person at the time of hysterectomy. […] Cross resistance to bleomycin, cisplatin, carmustine, 5-fluorouracil or methotrexate was not observed.
Nude mice were implanted with MES-SA DX5 cells to model uterine sarcoma. Anti-B1 monoclonal antibodies are efficacious in MES-SA DX5 uterine sarcoma model in nude mice.

[4] = biological target: T2, human MDR1 extracellular loops 1 and 4 (ECD1, ECD4) (Homo sapiens, UniProt P08183); assay: Epitope mapping with mutant human MDR1 expressed on 293T cells (flow cytometry); assay type: binding; conditions: extracellular loop 1 and extracellular loop 4
T2 construct: FLAG (C); expressed in transfected cells; host or cells: 293T
Description: (§3) To determine binding of anti-MDR1 mAbs listed in Table 2 to the two major extracellular loops 1 and 4 of MDR1, various mutations were constructed to alter or substitute these two loops. To examine binding to cynomolgus extracellular loops, the extracellular loop 1 and/or loop 4 of cynomolgus MDR1 were grafted (with a C-terminal FLAG tag) to substitute for the human loops in the human MDR1 using standard techniques. To examine binding dependence on the normal human loops, MDR1 variants with deletion 79-102 and deletion 82-99 in loop 1 were also generated. Loop 1 is also referred to as ECD1. Loop 4 is also referred to as ECD4. These mutant MDR1 efflux pump variants were expressed on 293T cells using standard methods to generate cells that could be used to distinguish binding of various anti-MDR1 mAbs. The different cells were incubated with different anti-MDR1 mAbs for about 1 hour at 4° C. The cells were washed twice with FACS buffer (PBS containing 0.5% BSA). Alexa647 labeled goat anti-human antibody was added as a secondary antibody, and the samples were incubated on ice for another 1 hour. Samples were washed again and analyzed by flow cytometry.
(§4) FIG. 9 summarizes the findings from preliminary epitope mapping using mutant human MDR1. […] For example, anti-MDR1 mAb B1.129 requires ECD1 and ECD4 for binding to human MDR1. All of the anti-MDR1 antibodies contact ECD4. […] ECD1 refers to the first extracellular domain of human ABCB1, ECD4 refers to the fourth extracellular domain of human ABCB1 and “others” refers to the remainder of the extracellular domains 2-3 and 5-6 of human ABCB1. Only binding to ECD1 and ECD4 was tested.

[5] = system: human MDR1 extracellular loops 1 and 4 (ECD1, ECD4); assay: as above; assay type: binding; conditions: mutant versus WT human ABCB1; preliminary epitope mapping
Description: as §3, §4

human MDR1 [6] = biological target: T1, human MDR1; assay: Efflux blockade of MDR1 fluorescent substrates (flow cytometry); assay type: cell-based
Method: HEK 293T cells expressing human MDR1 or MES-SA/DX5 cells expressing human MDR1 were washed several times and aliquoted into 96-well plates as 50 µl aliquots/well at a cell density of 1 x 10e6 cells per ml in phenol red-free DMEM. Cells were mixed with 300 nM to 1 nM antibodies and incubated for 1 h at 37° C. To determine efflux blockade cells were incubated in the presence of B1 fluorescent substrates as follows: 0.6 µM Rhodamine; 5 µM […] (DiOC2(3)) or 0.6 µM Calcein AM for 1.5 h at 37° C. The cells were then washed twice and finally resuspended in […] PBS. Rhodamine, DiOC2(3) or Calcein AM fluorescence were measured by flow cytometry.
Effect of anti-MDR1 antibodies on efflux of MDR1 substrates Calcein, DIOC2, and Rhodamine was assessed as described in efflux blockade experimental procedure.

[7] = system: MES-SA DX5 uterine sarcoma; assay: MES-SA DX5 uterine sarcoma model in NSG mice; assay type: in vivo
Description: NSG mice were implanted with MES-SA DX5 cells to model uterine sarcoma. Anti-B1 monoclonal antibodies are efficacious in MES-SA DX5 uterine sarcoma model in NSG mice.

Molecule	binding to human MDR1 (hB1) (human MDR1 [1])	binding to cynomolgus MDR1 (cB1) (cynomolgus MDR1)	tumor volume, single agent [2]	tumor volume, in combination with paclitaxel [2]	tumor volume / tumor growth, single agent [3]	tumor volume / tumor growth, in combination with paclitaxel [3]	epitope on human MDR1 [4]	ECD1 required for antibody binding to human ABCB1 [5]	ECD4 required for antibody binding to human ABCB1 [5]	inhibition of efflux of DIOC2 (human MDR1 [6]; 293T.hB1 cell line)	inhibition of efflux of Rhodamine (human MDR1 [6]; 293T.hB1 cell line)	inhibition of efflux of DIOC2 (human MDR1 [6]; MES-SA/Dx5 cells)	inhibition of efflux of Rhodamine (human MDR1 [6]; MES-SA/Dx5 cells)	inhibition of efflux of Calcein (human MDR1 [6]; cell line not given)	sensitization of MES-SA DX5 uterine sarcoma to paclitaxel [3]	sensitization of MES-SA DX5 uterine sarcoma to paclitaxel [7]
B1	binds	binds	decreased tumor volume	decreased tumor volume	decreased tumor volume; also recorded: more effective in inhibiting tumor growth than 15D3 antibody	decreased tumor volume; also recorded: more effective in inhibiting tumor growth than 15D3 antibody	bind to an epitope comprising extracellular loop 1 and extracellular loop 4	requires	requires	inhibited efflux	inhibited efflux	inhibited efflux	inhibited efflux	inhibited efflux of Calcein to a greater extent than the anti-MDR1 antibody 15D3	–	–
B2	–	–	decreased tumor volume	decreased tumor volume	decreased tumor volume	decreased tumor volume	bind to an epitope comprising extracellular loop 1 and extracellular loop 4	–	–	–	–	–	–	–	sensitized	sensitizes
B3	bind to hB1 and cB1	bind to hB1 and cB1	decreased tumor volume	decreased tumor volume	decreased tumor volume	decreased tumor volume	–	–	–	–	–	–	–	–	sensitized	–
B4	binds to both hB1 and cB1	binds to both hB1 and cB1	decreased tumor volume	decreased tumor volume	–	–	–	–	–	–	–	–	–	–	–	–
